Test [1] deals with T1, recombinant human TSLP-his (human, UniProt Q969D9 29-159, biotin-labeled in the ELISAs).
T1 construct: In-house made; not shown: His tag at the C-terminus
Description: capture ELISA: antibody captured on anti-human IgG Fc F(ab')2, biotin human TSLP-his, SA-HRP. The procedure:
Briefly, 96-well micro plates were coated with 100 μL 2 μg/mL AffiniPure F(ab′)₂ Fragment Goat Anti-Human IgG, Fey fragment specific (Jackson Immuno Research, Cat #109-006-008) in PBS and incubated overnight at 4° C. Plates were washed 4 times with wash buffer (PBS+0.05% Tween-20, PBST) and then blocked with 200 μL/well blocking buffer (5% w/v non-fatty milk in PBST) for 2 hours at 37° C. […] After the final wash, the plates were incubated with 100 μL/well TMB (Innoreagents). The reaction was stopped 15 minutes later at room temperature with 50 μL/well 1M H₂SO₄, and the absorbance of each well was read on a microplate reader using dual wavelength mode with 450 nm for TMB and 630 nm as the reference wavelength. The OD (450-630) values were plotted against antibody concentration. Data was analyzed using Graphpad Prism and EC₅₀ values were reported.
A general note: In an ELISA, binding on a coated surface is turned into a signal by an enzyme label.

For test [2], the target named is T1, recombinant human TSLP-his. Description: competitive ELISA: antibody pre-mixed with biotin human TSLP-his; blocked binding to coated TSLPR-Fc/IL7Ra-Fc. How it is done:
Briefly, 100 μL human TSLPR-Fc proteins (SEQ ID NO: 34-SEQ ID NO: 38 fusion, prepared in-house) at 1 μg/mL in PBS, and 100 μL human IL7Ra-Fc proteins (SEQ ID NO: 35-SEQ ID NO: 38 fusion, prepared in-house) at 1 μg/mL in PBS were coated on 96-well micro plates overnight at 4° C. The next day, plates were washed with wash buffer (PBS+0.05% Tween-20, PBST), and blocked with 5% w/v non-fatty milk in PBST for 2 hours at 37° C. Plates were then washed again using wash buffer.
After incubation at 37° C. for 40 minutes, plates were washed 4 times using wash buffer. […] Plates were washed again using wash buffer. Finally, TMB was added and the reaction was stopped using 1M H₂SO₄. The absorbance was read on a microplate reader using dual wavelength mode with 450 nm for TMB and 630 nm as the reference wavelength, then the OD (450-630) values were plotted against the antibody concentration. Data was analyzed using Graphpad Prism and IC₅₀ values were reported.

Test [3] addresses T2, biotin-labeled human TSLP-Fc (human, biotin-labeled).
T2 construct: also called TSLP-Fc protein; TSLP-Fc-biotin
Description: cell-based blocking FACS: antibody pre-mixed with biotin human TSLP-Fc; blocked binding to cell-surface TSLPR/IL7Ra on HEK293T-TSLPR/IL7R/STAT5-Luc 5C5 cells. How it is done:
(§1) The cells were prepared following the instruction of lipofectamine 3000 transfection reagent (Thermo Fisher), by transfecting HEK293T cells (ATCC® CRL-11268) with pCMV-T-P plasmids inserted with TSLPR coding sequence between EcoRI and Xba1 sites and pCMV3-SP plasmids inserted with IL7Ra coding sequence between HindIII and Xba1 sites as well as pGL4.52 [luc2P/STAT5RE/Hygro](Promega).
(§2) The cells were harvested from cell culture flasks, washed twice and re-suspended in phosphate buffered saline (PBS) containing 2% v/v Fetal Bovine Serum (FACS buffer). […] Cells were washed twice with FACS buffer, and then added and incubated with 100 μL/well R-Phycoerythrin Streptavidin (1:500 dilution in FACS buffer, Jackson Immunoresearch, Cat #016-110-084) for 40 minutes at 4° C. in dark. Cells were washed twice and re-suspended in FACS buffer. Fluorescence was measured using a Becton Dickinson FACS Canto II-HTS equipment. Data was analyzed using Graphpad Prism and IC₅₀ values were reported.

Test [4] deals with T2, biotin-labeled human TSLP-Fc. Described as above. The procedure: as §1, §2
This is another data set of the same source.

Test [5] addresses human IL4Rα on HEK293T-IL4R/STAT6/STAT6-Luc LB2 cells (human, UniProt P24394 26-825). The experiment in a line: cell-based or functional assay.
Test [6] has as its target T3, human IL4Rα expressed on 293F-IL4Rα cell surface (human, UniProt P24394 26-825).
T3 construct: whole, on cells; also called human IL4Rα-expressing cells; cell surface IL4R
The experiment in a line: flow cytometry on 293F-IL4Rα cells, PE anti-human IgG Fc. The procedure:
(§3) Cells were washed twice with FACS buffer, and added with 100 μL/well R-Phycoerythrin AffiniPure Goat Anti-Human IgG, Fey fragment specific (1:1000 dilution in FACS buffer, Jackson Immunoresearch, Cat #109-115-098). Following an incubation of 40 minutes at 4° C. in dark, cells were washed three times and resuspended in FACS buffer. Fluorescence was measured using a Becton Dickinson FACS Canto II-HTS equipment. Data was analyzed using Graphpad Prism and EC₅₀ values were reported.
For orientation: In flow cytometry, cells or beads pass a laser one at a time.

Test [7] has as its target T3, human IL4Rα expressed on 293F-IL4Rα …. Description: cell-based blocking FACS on 293F-IL4Rα cells; blocked ligand biotin human IL4. The procedure:
(§4) Then, 1×10⁵ cells per well were incubated in 96 well-plates in 100 μL of serially diluted bispecific antibodies, the positive controls or negative control (starting at 100 nM with a 5-fold serial dilution) in FACS buffer for 40 minutes on ice. […] The plates were washed twice with FACS buffer, and then added and incubated for 40 minutes at 4° C. in dark with 100 μL/well R-Phycoerythrin Streptavidin (1:500 dilution in FACS buffer, Jackson Immunoresearch, Cat #016-110-084). Cells were washed twice and resuspended in FACS buffer. Fluorescence was measured using a Becton Dickinson FACS Canto II-HTS equipment. Data was analyzed using Graphpad Prism and IC₅₀ values were reported.

The target of test [8] is T4, recombinant human IL4Rα-his (human, UniProt P24394 26-231, limits assumed, biotin-labeled in the capture ELISA).
T4 construct: In-house made; not shown: His tag at the C-terminus
The experiment in a line: capture ELISA: antibody captured on anti-human IgG Fc F(ab')2, biotin human IL4Rα-his, SA-HRP. How it is done: (§5) Briefly, 96-well plates were coated with 2 μg/mL AffiniPure F(ab′)₂ Fragment Goat Anti-Human IgG, Fey fragment specific (Jackson Immuno Research, Cat #109-006-008) in PBS, 100 μL/well, overnight at 4° C. Plates were washed once with wash buffer (PBS+0.05% w/v Tween-20, PBST) and then blocked with 200 μL/well blocking buffer (5% w/v non-fatty milk in PBST) for 2 hours at 37° C. […] After a final wash, plates were incubated with 100 μL/well ELISA substrate TMB (Innoreagents, Cat #TMB-S-002). The reaction was stopped in 10 minutes at 25° C. with 50 μL/well 1M H₂SO₄, and the absorbance was read on a microplate reader using dual wavelength mode with 450 nm for TMB and 630 nm as the reference wavelength. Data was analyzed using Graphpad Prism and EC₅₀ values were reported.

In test [9] the target is T4, recombinant human IL4Rα-his. The experiment in a line: SPR Biacore T200; antibody captured on anti-human IgG CM5 chip, IL4Rα-his as analyte; 1:1 Langmuir fit. The procedure:
The goat anti-human IgG (GE healthcare, Cat #BR100839, Human Antibody Capture Kit) was covalently linked to a CM5 chip (carboxy methyl dextran coated chip) via primary amines, using a standard amine coupling kit provided by Biacore (GE healthcare, Pittsburgh, PA, USA). Un-reacted moieties on the biosensor surface were blocked with ethanolamine. Then, purified bispecific antibodies of the disclosure at the concentration of 66.67 nM and the controls at 10 μg/mL, were flowed onto the chip at a flow rate of 10 μL/min. Then, serially diluted recombinant human IL4Rα-his (in house made, IL4Rα of SEQ ID NO: 33 with His tag at C-terminus) in HBS EP buffer (provided by Biacore) was flowed onto the chip at a flow rate of 30 μL/min. The association and dissociation curves were fit to a 1:1 Langmuir binding model using BIAcore evaluation software.
Background: In SPR one partner is held on a chip, and binding of the other changes the refractive index at the surface.

For test [10] the target is unchanged. Description: competitive ELISA: coated human IL4Rα-his, antibody titrated; blocked ligand biotin human IL4. The procedure:
(§6) Briefly, 100 μL human IL4Rα-his proteins (prepared in-house, IL4Rα of SEQ ID NO: 33 with C-terminal His tag) were coated on 96-well micro plates at 2 μg/mL in PBS overnight at 4° C. The next day, plates were washed with wash buffer (PBS+0.05% w/v Tween-20, PBST), and blocked with 5% w/v non-fatty milk in PBST for 2 hours at 37° C. Plates were then washed again using wash buffer. Serially diluted bispecific antibodies or the controls (starting at 100 nM with a 5-fold serial dilution) in 2.5% w/v non-fatty milk in PBST, 100 μL per well, were added to the IL4Rα bound plates, and incubated at 37° C. for 40 minutes. […] Plates were washed again using wash buffer. Thereafter, the plates were added with 100 μL/well of streptavidin conjugated HRP (1:10000 dilution in PBST buffer, Jackson Immunoresearch, Cat #016-030-084) and incubated for 40 minutes at 37° C. Plates were washed again using wash buffer. Finally, TMB was added and the reaction was stopped using 1M H₂SO₄, and the absorbance was read at 450 nm. Data was analyzed using Graphpad Prism and IC₅₀ values were reported.

For test [11] the target is unchanged. The test is described as above. How it is done: as §6
The source holds these as a separate data set.

The target in test [12] is T3, human IL4Rα expressed on 293F-IL4Rα …. The experiment in a line: flow cytometry on 293F-IL4Rα cells, PE anti-human IgG Fc. The procedure: as §3
This is another data set of the same source.

Test [13] shares this target. Description: cell-based blocking FACS on 293F-IL4Rα cells; blocked ligand biotin human IL4. The procedure:
as §4
This is another data set of the same source.

The target of test [14] is T4, recombinant human IL4Rα-his. Description: capture ELISA: antibody captured on anti-human IgG Fc F(ab')2, biotin human IL4Rα-his, SA-HRP. The procedure:
as §5
The source holds these as a separate data set.

Where two headings read alike, the source gives them in different places.

B1: hu1C5F12E9-V8(IgG4) (antibody)
heavy: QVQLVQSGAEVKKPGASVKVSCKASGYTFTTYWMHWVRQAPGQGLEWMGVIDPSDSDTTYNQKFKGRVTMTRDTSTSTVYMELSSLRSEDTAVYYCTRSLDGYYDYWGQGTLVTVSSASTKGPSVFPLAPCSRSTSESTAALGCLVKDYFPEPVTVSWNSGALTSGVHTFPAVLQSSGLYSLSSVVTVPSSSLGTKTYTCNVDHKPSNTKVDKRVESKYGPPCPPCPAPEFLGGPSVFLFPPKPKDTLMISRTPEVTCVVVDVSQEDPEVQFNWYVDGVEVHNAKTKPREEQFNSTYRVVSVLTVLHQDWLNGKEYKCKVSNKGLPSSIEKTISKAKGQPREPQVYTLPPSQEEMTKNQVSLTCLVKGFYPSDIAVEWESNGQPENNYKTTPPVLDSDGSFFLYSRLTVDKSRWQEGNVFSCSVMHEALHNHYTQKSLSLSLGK
light: DIQMTQSPSSLSASVGDRVTITCRPTENIYSYLAWYQQKPGKAPKLLIYFARTLAEGVPSRFSGSGSGTDFTLTISSLQPEDFATYYCQHHYGTPWTFGGGTKVEIKRTVAAPSVFIFPPSDEQLKSGTASVVCLLNNFYPREAKVQWKVDNALQSGNSQESVTEQDSKDSTYSLSSTLTLSKADYEKHKVYACEVTHQGLSSPVTKSFNRGEC
notes: also called parental anti-TSLP antibody hu1C5F12E9-V8(IgG4)
As to B1, the EC50 – broadly, the midpoint of the concentration-response curve – in test [1] turned out to be 0.0512 nM. In addition, the 50% inhibitory concentration (IC50) – broadly, the point on the concentration scale where inhibition reaches its midpoint – in [2] was 0.0716 nM; in test [3] it was 1.04 nM; in test [4], 1 nM.

B2: Dupilumab (antibody, V domains shown)
VH: EVQLVESGGGLEQPGGSLRLSCAGSGFTFRDYAMTWVRQAPGKGLEWVSSISGSGGNTYYADSVKGRFTISRDNSKNTLYLQMNSLRAEDTAVYYCAKDRLSITIRPRYYGLDVWGQGTTVTVSS
VL: DIVMTQSPLSLPVTPGEPASISCRSSQSLLYSIGYNYLDWYLQKSGQSPQLLIYLGSNRASGVPDRFSGSGSGTDFTLKISRVEAEDVGFYYCMQALQTPYTFGQGTKLEIKR
Consider B2, for which, in [5], the “Inhibition on IL4 induced STAT6 phosphorylation (IC50, nM)” value worked out at 0.00473 nM and the “Inhibition on IL13 induced STAT6 phosphorylation (IC50, nM)” value came out at 0.0262 nM. Further, the EC50 in test [6] came to 0.128 nM. In addition, it took 0.102 nM to reach half-maximal inhibition in test [7] (IC50). Besides, in test [8], the EC50 is 0.015 nM. In test [9], the Kd (usually the concentration at which binding is half-saturated) turned out to be 0.196 nM; the koff (in general, the rate constant with which the complex falls apart) amounted to 5.58e-05 s⁻¹; the on-rate constant (kon) – broadly, the second-order rate constant of association – is 285000 M⁻¹ s⁻¹. Further, the 50% inhibitory concentration (IC50) in [10] came out at 0.22 nM. Also, the IC50 in [11] came out at 0.254 nM.

B3: huC2C1A1A1-V15(IgG4) (antibody)
heavy: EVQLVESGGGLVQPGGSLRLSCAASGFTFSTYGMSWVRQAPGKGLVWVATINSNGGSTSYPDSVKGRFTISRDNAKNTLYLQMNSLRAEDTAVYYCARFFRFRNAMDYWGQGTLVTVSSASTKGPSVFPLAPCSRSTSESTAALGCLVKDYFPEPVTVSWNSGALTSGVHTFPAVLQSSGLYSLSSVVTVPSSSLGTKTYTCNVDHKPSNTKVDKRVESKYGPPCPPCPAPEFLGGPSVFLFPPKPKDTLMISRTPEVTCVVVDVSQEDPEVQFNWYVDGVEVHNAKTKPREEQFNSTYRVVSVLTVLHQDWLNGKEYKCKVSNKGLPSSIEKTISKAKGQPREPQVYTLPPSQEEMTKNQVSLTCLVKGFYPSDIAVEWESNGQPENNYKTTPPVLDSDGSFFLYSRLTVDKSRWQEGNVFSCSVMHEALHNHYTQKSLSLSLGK
light: DIQMTQSPSSLSASVGDRVTITCRTSENIYSYLAWYQQKPGKAPKFLVYNAKTLAEGVPSRFSGSGSGTDFTLTISSLQPEDFATYYCQHYYGPPTWTFGQGTKVEIKRTVAAPSVFIFPPSDEQLKSGTASVVCLLNNFYPREAKVQWKVDNALQSGNSQESVTEQDSKDSTYSLSSTLTLSKADYEKHKVYACEVTHQGLSSPVTKSFNRGEC
notes: also called anti-IL4R huC2C1A1A1-V15
For the molecule B3, the “Inhibition on IL4 induced STAT6 phosphorylation (IC50, nM)” value in test [5] is 0.015 nM. Also, the “Inhibition on IL13 induced STAT6 phosphorylation (IC50, nM)” value in [5] came to 0.033 nM. Further, the EC50 was approximately 0.161 nM in [12] and 0.0225 nM in test [14]. Further, the IC50 in test [13] was 0.107 nM; in [10], 0.266 nM; in [11] it was 0.364 nM.

Source of the values: US20260109758A1 (BIOSION, published 2026).
